According to patent US20200408765A1 (Sanofi, published 2020):

Molecular target: human CD38 (human, UniProt P28907 1-300)
Experiment: cell-based or functional assay

B1: chimeric 38SB31 (antibody, V domains shown)
VH: DVKLVESGGGLVKPGGSLKLSCEASGFTFSSYTLSWVRQTPETRLEWVATISIGGRYTYYPDSVEGRFTISRDNAKNTLYLQMNSLKSEDTAMYYCTRDFNGYSDFWGQGTTLTVSS
VL: DTVMTQSHKFISTSVGDRVSITCKASQVVGSAVAWYQQKPGQSPKLLIYWASTRHTGVPDRFTGSGSGTDFTLTISNVQSEDLADYFCQQYNSYPYTFGGGTKLEIKR
- CDC: specific viability of Daudi cells with 1.25 µg/mL or higher antibody and complement: 53%
